The numbers were not newly measured in article PMC4853784, which cites them from elsewhere.

This series concerns the target V1b receptor (Homo sapiens) (UniProt P47901). The series can be described thus: radioligand.
UniProt P47901, sequence (P47901 whole entry): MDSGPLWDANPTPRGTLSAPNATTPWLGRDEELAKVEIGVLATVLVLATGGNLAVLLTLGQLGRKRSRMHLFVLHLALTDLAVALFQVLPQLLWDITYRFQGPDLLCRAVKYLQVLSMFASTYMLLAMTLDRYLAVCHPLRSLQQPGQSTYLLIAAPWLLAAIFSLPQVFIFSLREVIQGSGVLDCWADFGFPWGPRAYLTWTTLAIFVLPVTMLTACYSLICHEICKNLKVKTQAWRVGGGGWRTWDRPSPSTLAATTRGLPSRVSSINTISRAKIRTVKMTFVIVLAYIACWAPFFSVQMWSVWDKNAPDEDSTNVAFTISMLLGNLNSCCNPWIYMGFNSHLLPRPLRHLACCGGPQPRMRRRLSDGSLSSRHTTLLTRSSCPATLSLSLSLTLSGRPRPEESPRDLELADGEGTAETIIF

The term Kd denotes the free concentration of one partner at which half of the binding sites on the other are occupied at equilibrium, for simple one-to-one binding. Turning to vasopressin (from UniProt P01185), the Kd is 1.8 nM.
